{
  "source": "patent US6369030",
  "about": "(ROCKFELLER UNIVERSITY, dated 2002)",
  "key": {"[1]": {"target": "p300 histone acetyltransferase (full length, purified recombinant) (UniProt Q09472 2-2414, limits assumed)", "sequence (Q09472 2-2414 limits assumed)": "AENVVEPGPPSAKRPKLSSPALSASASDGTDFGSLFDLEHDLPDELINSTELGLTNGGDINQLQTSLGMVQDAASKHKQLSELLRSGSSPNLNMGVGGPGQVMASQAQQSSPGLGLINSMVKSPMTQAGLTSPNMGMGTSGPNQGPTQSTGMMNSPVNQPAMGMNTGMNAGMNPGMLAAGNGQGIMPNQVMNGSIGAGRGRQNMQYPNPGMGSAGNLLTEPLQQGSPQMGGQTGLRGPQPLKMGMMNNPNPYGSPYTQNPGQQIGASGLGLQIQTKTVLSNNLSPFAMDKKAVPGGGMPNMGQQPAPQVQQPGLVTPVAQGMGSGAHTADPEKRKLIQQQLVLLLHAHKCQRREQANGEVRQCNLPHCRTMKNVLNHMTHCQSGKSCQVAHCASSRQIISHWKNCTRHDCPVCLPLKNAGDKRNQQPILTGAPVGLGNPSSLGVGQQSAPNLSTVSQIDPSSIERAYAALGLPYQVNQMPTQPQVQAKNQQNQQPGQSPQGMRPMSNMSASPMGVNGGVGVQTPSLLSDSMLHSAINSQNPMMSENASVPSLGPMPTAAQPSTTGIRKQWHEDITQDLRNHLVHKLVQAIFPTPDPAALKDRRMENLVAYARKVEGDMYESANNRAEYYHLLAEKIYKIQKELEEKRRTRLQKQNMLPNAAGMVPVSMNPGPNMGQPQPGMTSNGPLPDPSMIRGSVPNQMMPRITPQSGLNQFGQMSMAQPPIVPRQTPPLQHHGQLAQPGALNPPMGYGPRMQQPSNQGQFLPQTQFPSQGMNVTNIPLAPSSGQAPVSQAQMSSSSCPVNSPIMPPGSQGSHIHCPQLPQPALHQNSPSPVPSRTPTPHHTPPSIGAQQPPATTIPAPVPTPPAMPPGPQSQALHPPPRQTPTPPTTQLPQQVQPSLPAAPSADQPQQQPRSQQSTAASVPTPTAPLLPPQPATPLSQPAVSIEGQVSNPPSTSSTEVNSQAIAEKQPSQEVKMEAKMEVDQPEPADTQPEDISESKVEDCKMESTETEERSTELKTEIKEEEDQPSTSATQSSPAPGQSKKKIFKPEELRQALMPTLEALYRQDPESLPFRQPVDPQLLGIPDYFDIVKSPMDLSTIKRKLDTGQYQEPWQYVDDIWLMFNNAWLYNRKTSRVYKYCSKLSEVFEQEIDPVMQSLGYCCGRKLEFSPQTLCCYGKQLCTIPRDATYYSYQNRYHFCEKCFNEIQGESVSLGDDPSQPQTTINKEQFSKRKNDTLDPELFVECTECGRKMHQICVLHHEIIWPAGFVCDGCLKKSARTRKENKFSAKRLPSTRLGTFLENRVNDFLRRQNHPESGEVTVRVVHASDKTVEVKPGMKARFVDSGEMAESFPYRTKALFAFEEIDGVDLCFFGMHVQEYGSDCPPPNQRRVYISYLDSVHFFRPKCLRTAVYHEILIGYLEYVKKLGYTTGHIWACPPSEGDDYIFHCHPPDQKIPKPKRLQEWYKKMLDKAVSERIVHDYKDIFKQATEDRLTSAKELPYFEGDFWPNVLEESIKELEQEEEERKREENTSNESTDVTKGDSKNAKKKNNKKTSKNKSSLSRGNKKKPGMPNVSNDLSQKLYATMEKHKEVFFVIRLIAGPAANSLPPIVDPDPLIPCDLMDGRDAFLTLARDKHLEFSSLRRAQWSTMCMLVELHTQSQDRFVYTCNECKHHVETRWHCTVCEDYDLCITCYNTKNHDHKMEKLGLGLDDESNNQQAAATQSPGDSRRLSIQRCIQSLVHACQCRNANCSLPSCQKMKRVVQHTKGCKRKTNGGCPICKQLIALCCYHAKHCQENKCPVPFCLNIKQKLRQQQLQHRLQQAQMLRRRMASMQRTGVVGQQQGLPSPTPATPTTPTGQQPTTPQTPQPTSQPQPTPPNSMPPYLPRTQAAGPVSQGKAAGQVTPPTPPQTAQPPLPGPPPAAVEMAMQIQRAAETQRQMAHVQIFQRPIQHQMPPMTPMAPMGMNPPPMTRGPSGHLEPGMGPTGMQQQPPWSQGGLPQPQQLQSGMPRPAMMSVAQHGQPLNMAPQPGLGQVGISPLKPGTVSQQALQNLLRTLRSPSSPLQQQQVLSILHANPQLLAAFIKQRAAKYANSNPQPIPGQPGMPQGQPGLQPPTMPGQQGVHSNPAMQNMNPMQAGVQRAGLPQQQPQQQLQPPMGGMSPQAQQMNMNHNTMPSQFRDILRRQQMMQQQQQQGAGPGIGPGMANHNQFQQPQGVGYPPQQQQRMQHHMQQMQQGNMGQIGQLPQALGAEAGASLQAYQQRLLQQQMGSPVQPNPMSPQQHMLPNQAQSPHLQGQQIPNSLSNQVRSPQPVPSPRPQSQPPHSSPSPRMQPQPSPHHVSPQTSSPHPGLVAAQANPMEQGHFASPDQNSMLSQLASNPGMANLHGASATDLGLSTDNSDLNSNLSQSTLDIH", "test": "cell-based or functional assay"}, "[2]": {"target": "PCAF histone acetyltransferase (full length, purified recombinant) (UniProt Q92831 1-832, limits assumed)", "sequence (Q92831 whole entry)": "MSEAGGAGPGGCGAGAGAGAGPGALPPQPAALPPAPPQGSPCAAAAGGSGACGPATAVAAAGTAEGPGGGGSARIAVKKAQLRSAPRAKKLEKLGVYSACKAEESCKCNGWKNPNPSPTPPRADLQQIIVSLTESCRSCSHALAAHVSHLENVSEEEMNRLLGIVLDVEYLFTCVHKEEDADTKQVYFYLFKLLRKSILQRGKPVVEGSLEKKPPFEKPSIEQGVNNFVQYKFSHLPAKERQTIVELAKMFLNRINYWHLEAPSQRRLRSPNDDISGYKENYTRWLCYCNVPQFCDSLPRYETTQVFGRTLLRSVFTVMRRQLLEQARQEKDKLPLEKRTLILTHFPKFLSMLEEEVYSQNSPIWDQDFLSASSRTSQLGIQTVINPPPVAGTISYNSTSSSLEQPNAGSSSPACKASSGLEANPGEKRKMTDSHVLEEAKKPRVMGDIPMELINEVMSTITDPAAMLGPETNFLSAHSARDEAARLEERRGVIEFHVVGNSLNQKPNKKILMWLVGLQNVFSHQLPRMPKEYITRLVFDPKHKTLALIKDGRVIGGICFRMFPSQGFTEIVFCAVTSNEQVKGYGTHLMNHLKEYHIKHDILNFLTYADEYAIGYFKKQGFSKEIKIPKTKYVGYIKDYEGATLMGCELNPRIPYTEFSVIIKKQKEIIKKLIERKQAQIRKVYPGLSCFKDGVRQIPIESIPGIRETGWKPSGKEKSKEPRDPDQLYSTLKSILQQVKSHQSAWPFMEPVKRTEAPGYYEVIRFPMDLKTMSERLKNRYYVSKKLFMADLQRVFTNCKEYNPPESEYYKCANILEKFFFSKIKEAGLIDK", "test": "cell-based or functional assay"}},
  "data": [
    {"binder": "Ac-GGKAPRK-NH2 (also: further groups not given here)", "note": "[H3-CoA-7]", "values": [
      {"measurement": "IC50 with p300 (µM), HAT activity inhibition, mixed histones", "setting": "[1]", "value": "> 30", "unit": "µM"},
      {"measurement": "IC50 with PCAF (µM), HAT activity inhibition, mixed histones", "setting": "[2]", "value": "> 20", "unit": "µM"}
    ]}
  ]
}
